These results are taken from US20120082679A1 (Merck Sharp & Dohme, published 2012).

Read-outs that look alike come from different tables or passages of the source.

Assay [1] has as its target T1, recombinant human PCSK9, V5-, His-tagged (human, UniProt Q8NBP7 31-692, limits assumed). Nature of the assay: cell-based or functional assay.
Assay [2] addresses T1, recombinant human PCSK9, V5-, His-tagged. Nature of the assay: cell-based or functional assay. This is another data set of the same source.
Assay [3] shares this target. Nature of the assay: SPR (Biacore 2000), Direct (PCSK9 immobilized, Fab in mobile phase), mean N = 2. (In SPR one partner is held on a chip, and binding of the other changes the refractive index at the surface.)
Assay [4] has as its target T2, V5-, His-tagged secreted alkaline phosphatase protein (SEAP) (UniProt P05187 23-511).
T2 construct: Tag control antigen, expressed in the same cells as the PCSK9 antigen and similarly purified; not shown: V5 and His tags
Nature of the assay: ELISA, immobilized V5-, His-tagged SEAP, Fab culture supernatant, HRP anti-Fab detection. How it is done:
Cultures of individual transformants were IPTG-induced and grown overnight for Fab expression. Culture supernatants (candidate Fabs) were incubated with purified V5-, His-tagged PCSK9 protein immobilized in wells of 96-well Nunc Maxisorp plates, washed with 0.1% Tween™ 20 in PBS using a plate washer, incubated with HRP-coupled anti-Fab antibody, and washed again with PBS/Tween™ 20. Bound HRP was detected by addition of […] substrated, and A₄₅₀ values of wells were read with a plate reader.
EsB antigen was bound to three wells of the plate and subsequently incubated with anti-EsB Fab. To control for Fabs reacting with the V5 or His tags of the recombinant PCSK9 antigen, parallel ELISAs were performed using V5-, His-tagged secreted alkaline phosphatase protein (SEAP) expressed in the same cells as the original PCSK9 antigen and similarly purified. Putative PCSK9-reactive Fabs were identified as yielding>3× background values when incubated with PCSK9 antigen but negative when incubated with SEAP. Clones scoring as PCSK9-reactive in the first round of screening were consolidated onto a single plate, re-grown in triplicate, re-induced with IPTG, and re-assayed in parallel ELISAs vs. PCSK9 and SEAP. Positive and negative controls were included as described above. Clones scoring positive in at least 2 of 3 replicates were carried forward into subsequent characterizations. In cases of known or suspected mixed preliminary clones, cultures were re-purified by streaking for single colonies on 2×YT plates with chloramphenicol, and liquid cultures from three or more separate colonies were assayed again by ELISAs in triplicate as described above.

Assay [5] has as its target T1, recombinant human PCSK9, V5-, His-tagged. Nature of the assay: cell-based or functional assay. This is another data set of the same source.
Assay [6] has the same target. Nature of the assay: cell-based or functional assay. The source holds these as a separate data set.
For assay [7] the target is unchanged. Nature of the assay: cell-based or functional assay. This is another data set of the same source.
The target is the same in assay [8]. Nature of the assay: SPR (Biacore 2000), Direct & Ab Capture, mean N = 3. How it is done: SPR measurements were performed using a Biacore™ (Pharmacia Biosensor AB, Uppsala, Sweden) 2000 system. Sensor chip CM5 and Amine coupling kit for immobilization were from Biacore™.
Anti-Fab IgG (Human specific) was covalently coupled to surfaces 1 and 2 of a Sensor Chip CM5 via primary amine groups, using the immobilization wizard with the “Aim for immobilization” option. A target immobilization of 5000 RU was specified. The wizard uses a 7 minute activation with a 1:1 mixture of 100 mM NHS and 400 mM EDC; injects the ligand in several pulses to achieve the desired level, then deactivates the remaining surface with a 7 minute pulse of ethanolamine.
Anti-PCSK9 Fabs were captured on capture surface 2 and surface 1 was used as a reference for kinetic studies of Fab:PCSK9 interactions. Fab was captured by flowing a 500 ng/ml solution at 5 μl/min for 1-1.5 minutes to reach a target RL for an Rₘₐₓ of 100-150 RU for the reaction. 5-10 concentrations of hPCSK9v5H is or mPCSK9v5H is antigens were flowed across the surface at 30 μl/minute for 3-4 minutes. 15-60 minutes dissociation time was allowed before regeneration of the Anti-Fab surface with a 30 second pulse of 10 mM glycine pH 2.0.

The target is the same in assay [9]. Nature of the assay: cell-based or functional assay. The source holds these as a separate data set.

T1 sequence (Q8NBP7 31-692 limits assumed): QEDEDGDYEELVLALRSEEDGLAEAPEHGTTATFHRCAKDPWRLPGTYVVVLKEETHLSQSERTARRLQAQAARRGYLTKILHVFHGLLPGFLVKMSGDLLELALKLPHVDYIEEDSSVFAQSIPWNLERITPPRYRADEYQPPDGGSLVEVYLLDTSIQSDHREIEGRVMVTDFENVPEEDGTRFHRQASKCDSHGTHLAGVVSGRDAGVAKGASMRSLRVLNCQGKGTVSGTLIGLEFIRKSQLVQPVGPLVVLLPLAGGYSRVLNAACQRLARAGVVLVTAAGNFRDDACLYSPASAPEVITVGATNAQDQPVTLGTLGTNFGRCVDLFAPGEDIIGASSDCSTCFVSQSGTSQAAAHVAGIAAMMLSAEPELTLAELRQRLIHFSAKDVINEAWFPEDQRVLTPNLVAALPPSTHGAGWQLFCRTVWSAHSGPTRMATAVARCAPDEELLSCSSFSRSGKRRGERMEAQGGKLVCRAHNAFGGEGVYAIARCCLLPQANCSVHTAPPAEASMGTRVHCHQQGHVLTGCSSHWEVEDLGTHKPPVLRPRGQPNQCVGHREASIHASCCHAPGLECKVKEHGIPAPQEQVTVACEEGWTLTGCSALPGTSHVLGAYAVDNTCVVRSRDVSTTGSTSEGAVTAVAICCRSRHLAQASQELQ
T2 sequence (P05187 23-511): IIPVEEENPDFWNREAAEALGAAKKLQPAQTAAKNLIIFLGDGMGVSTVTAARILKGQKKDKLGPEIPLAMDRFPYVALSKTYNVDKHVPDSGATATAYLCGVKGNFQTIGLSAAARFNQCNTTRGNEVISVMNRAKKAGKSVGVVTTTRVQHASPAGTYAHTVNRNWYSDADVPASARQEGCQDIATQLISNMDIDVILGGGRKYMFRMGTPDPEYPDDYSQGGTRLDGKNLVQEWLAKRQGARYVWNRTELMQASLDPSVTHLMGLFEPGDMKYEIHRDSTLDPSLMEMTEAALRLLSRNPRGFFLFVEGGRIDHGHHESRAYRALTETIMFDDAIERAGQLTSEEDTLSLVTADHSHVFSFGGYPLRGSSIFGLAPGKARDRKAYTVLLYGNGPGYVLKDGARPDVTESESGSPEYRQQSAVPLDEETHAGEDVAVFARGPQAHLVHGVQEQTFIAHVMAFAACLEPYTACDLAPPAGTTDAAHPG

B1: 3BX5C01 (Fab, V domains shown)
VH: QVQLVQSGAEVKKPGESLKISCKGSGYSFTSYGISWVRQMPGKGLEWMGMIDPSDSFTTYSPSFQGQVTISADKSISTAYLQWSSLKASDTAMYYCARGYYFTYALQPMDHWGQGTLVTVSS
VL: DIELTQPPSVSVAPGQTARISCSGDNLRDYIVHWYQQKPGQAPVLVIYDDSNRPSGIPERFSGSNSGNTATLTISGTQAEDEADYYCGFDNGGDIDVFGGGTKLTVLG
notes: also called 3BX5C01 Fab
In general, Kd refers to the concentration at which binding is half-saturated. One may read the koff as a measure of how fast the partners let go of each other. Usually kon stands for the rate constant with which the complex forms. Consider B1, for which, in [1], the “inhibition of PCSK9-dependent inhibition of cellular LDL uptake (Exopolar assay)” value (shortened to “inhibition”) was 25%. Also, the “IC50; Fab titrated against fixed PCSK9 (25 µg/ml), recovery of cellular diI-LDL uptake (Exopolar assay)” value (from here on “IC50; Fab titrated against fixed PCSK9”) in assay [2] worked out at 1250 nM. Further, in assay [3], the Kd is 23.1 nM, the koff was 0.000642 s⁻¹ and the kon stood at 28000 M⁻¹ s⁻¹. The binding result in [4] was “no binding”.

B2: 3CX2A06 (Fab, V domains shown)
VH: QVQLVQSGAEVKKPGESLKISCKGSGYSFSNFWIAWVRQMPGKGLEWMGIIDPSDSWTRYSPSFQGQVTISADKSISTAYLQWSSLKASDTAMYYCARGDGQDFDNWGQGTLVTVSS
VL: DIQMTQSPSSLSASVGDRVTITCRASQNINSYLNWYQQKPGKAPKLLIYAASSLQSGVPSRFSGSGSGTDFTLTISSLQPEDFAVYYCLQNYDLPNTFGQGTKVEIKR
notes: No SPR values are printed for this Fab; also called 3CX2A06 Fab
In the case of B2, the “inhibition” value in assay [1] stood at 23%. In addition, in assay [5], the “IC50; Fab titrated against fixed PCSK9” value was 107 nM. Besides, the binding result in assay [4] was “no binding”.

B3: 3CX3D02 (Fab, V domains shown)
VH: QVQLVQSGAEVKKPGESLKISCKGSGYSFTNSWIGWVRQMPGKGLEWMGIIYPSDSYTIYSPSFQGQVTISADKSISTAYLQWSSLKASDTAMYYCARGGGYYYALMDVWAQGTLVTVSS
VL: DIQMTQSPSSLSASVGDRVTITCRASQTISTWLNWYQQKPGKAPKLLIYAASSLQSGVPSRFSGSGSGTDFTLTISSLQPEDFATYYCLQDSSLPLTFGQGTKVEIKR
notes: also called 3CX3D02 Fab
As to B3, the “inhibition” value in [1] came to 23%. For the same molecule, in [6], the “IC50; Fab titrated against fixed PCSK9” value was 289 nM. In assay [3], the Kd was 7.01 nM, the koff turned out to be 0.000876 s⁻¹ and the kon came to 166000 M⁻¹ s⁻¹. In addition, the binding result in [4] is “no binding”.

B4: 1CX1G08 (Fab, V domains shown)
VH: QVQLVESGGGLVQPGGSLRLSCAASGFTFSDYWVSWVRQAPGKGLEWVSFISYDGSSTYYADSVKGRFTISRDNSKNTLYLQMNSLRAEDTAVYYCARTYFEGVDVWGQGTLVTVSS
VL: DIELTQPPSVSVAPGQTARISCSGDNIGTYYVHWYQQKPGQAPVLVIYDDSNRPSGIPERFSGSNSGNTATLTISGTQAEDEADYYCGTWDNTSFNLVFGGGTKLTVLG
notes: also called 1CX1G08 Fab
As to B4, the “inhibition” value in [1] is 53%. The “IC50; Fab titrated against fixed PCSK9” value in [7] stood at 267 nM. For the same molecule, in [8], the Kd amounted to 0.55 nM, the koff worked out at 0.000176 s⁻¹ and the kon turned out to be 335000 M⁻¹ s⁻¹. The binding result in assay [4] is given as “no binding”.

B5: 3CX4B08 (Fab, V domains shown)
VH: QVQLVESGGGLVQPGGSLRLSCAASGFTFSNYTMNWVRQAPGKGLEWVSFISSSSSETYYADSVKGRFTISRDNSKNTLYLQMNSLRAEDTAVYYCARGYGDMVDLWGQGTLVTVSS
VL: DIELTQPPSVSVAPGQTARISCSGDSIPTYYVAWYQQKPGQAPVLVIYSDTDRPSGIPERFSGSNSGNTATLTISGTQAEDEADYYCQSFDNHGYHVFGGGTKLTVLG
notes: also called 3CX4B08 Fab
B5: the “inhibition” value in assay [1] was 61%. In addition, the “IC50; Fab titrated against fixed PCSK9” value in assay [9] was 127 nM. Besides, in assay [8], the equilibrium dissociation constant (Kd) worked out at 2.97 nM, the koff was 0.000685 s⁻¹ and the kon worked out at 233000 M⁻¹ s⁻¹. Moreover, the binding result in [4] is “no binding”.
